According to patent US20210060157A1 (published 2021):
Positions count from the first letter of the chain named. Values joined by “and” are separate entries in the source; they are usually repeats but may differ in a detail not shown here. Equal entries are not always repeated. One block for each binder: values may come before it.

Legend:
[1] = biological target: T1, human complement component C6 (human, UniProt P13671 22-934); experiment: SPR, Biacore 2000
T1 construct: Protein was purified from human serum (113 kDa); biotinylated in the Fab ELISAs; also called human C6; hC6
T1 sequence (P13671 22-934 limits assumed): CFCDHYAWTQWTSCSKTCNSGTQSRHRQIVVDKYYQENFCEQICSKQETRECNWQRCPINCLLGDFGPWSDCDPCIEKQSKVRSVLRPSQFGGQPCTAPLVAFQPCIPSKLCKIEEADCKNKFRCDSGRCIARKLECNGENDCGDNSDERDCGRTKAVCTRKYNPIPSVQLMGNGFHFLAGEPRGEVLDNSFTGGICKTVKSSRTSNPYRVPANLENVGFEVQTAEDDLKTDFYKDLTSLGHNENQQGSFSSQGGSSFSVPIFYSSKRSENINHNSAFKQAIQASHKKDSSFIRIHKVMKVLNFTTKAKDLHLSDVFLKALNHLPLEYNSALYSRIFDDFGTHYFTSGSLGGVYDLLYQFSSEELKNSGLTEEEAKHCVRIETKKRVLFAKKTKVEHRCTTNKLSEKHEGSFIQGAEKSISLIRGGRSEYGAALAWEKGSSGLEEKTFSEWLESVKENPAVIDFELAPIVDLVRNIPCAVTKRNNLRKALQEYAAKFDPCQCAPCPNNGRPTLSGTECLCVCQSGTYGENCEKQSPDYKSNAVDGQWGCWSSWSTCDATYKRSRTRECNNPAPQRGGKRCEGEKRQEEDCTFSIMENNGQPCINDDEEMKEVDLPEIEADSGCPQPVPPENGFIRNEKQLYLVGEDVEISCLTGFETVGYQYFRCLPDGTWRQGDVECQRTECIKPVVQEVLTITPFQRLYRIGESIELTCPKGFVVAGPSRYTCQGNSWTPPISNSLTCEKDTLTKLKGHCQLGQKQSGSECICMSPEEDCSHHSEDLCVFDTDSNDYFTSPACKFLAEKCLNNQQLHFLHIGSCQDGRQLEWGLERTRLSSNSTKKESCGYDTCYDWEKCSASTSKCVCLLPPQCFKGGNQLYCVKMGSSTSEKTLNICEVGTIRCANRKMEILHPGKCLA
Experimental: (§1) Binding Kinetics: To investigate kinetics of 7E5 binding to C6, surface plasmon resonance measurement in a BIACORE 2000 (GE Healthcare) equipped with a research-grade CM5 sensor chip was used. The ligand (C6, 113 kDa) was immobilized using amine-coupling chemistry. The surface of flow cell two was activated for 7 minutes with a 1:1 mixture of 0.1 M NHS (N-hydroxysuccinimide) and 0.4 M EDC (3-(N,N-dimethylamino) propyl-N-ethylcarbodiimide) at a flow rate of 5 μl/min. The ligand at a concentration of 10 μg/ml in 10 mM sodium acetate, pH 5.0, was immobilized at a density of 955 RU. The surface was blocked with a 7 minute injection of 1 M ethanolamine, pH 8.0.
(§2) To collect kinetic binding data, the analytes (anti C6-antibodies, 150 kDa) in 10 mM HEPES, 150 mM NaCl, 0.005% P20, pH 7.4, were injected over the two flow cells at a flow rate of 30 μl/min and at a temperature of 25° C. The injected concentrations differ per antibody. Data were collected at a rate of 1 Hz. The complex was allowed to associate and dissociate for 90 and 300 seconds, respectively. The surfaces were regenerated with a 10 second injection of 0.1 M HCl. Duplicate injections (in random order) of each sample and a buffer blank were flowed over the two surfaces.
(§3) The data were fit to a simple 1:1 interaction model using the global data analysis option available within BiaEvaluation 4.1 software.

[2] = biological target: T1, human complement component C6; experiment: SPR, Biacore 2000, derived from kd
Experimental: as §1, §2, §3

peptide 420 = biological target: T2, peptide 420 (human); experiment: alanine scan on selected peptides (peptide array)
T2 peptide: DGRQLEWGLERTRLSS
Experimental: Subsequently, an alanine scan (in which alanine is used to replace amino acids one by one) on selected peptides was performed to help pinpoint the epitope.

peptide 418 = biological target: T3, peptide 418 (human); experiment: peptide array of overlapping 16mer C6 peptides on a membrane
T3 construct: Synthesized and spotted on a membrane (peptide array)
T3 peptide: GSCQDGRQLEWGLERT
Experimental: Peptide arrays were used to determine the epitope of 7E5 in human C6. Consecutive overlapping 16mer peptides (peptides 16 amino acids long, overlapping 14 amino acids) from the C6 protein sequence were synthesized and spotted in a grid pattern on a membrane. The membrane was then incubated with 7E5 antibody to detect which peptide was recognized by the antibody.

[3] = biological target: T1, human complement component C6; experiment: SPR, Biacore 2000, C6 amine-coupled to CM5 chip, antibody as analyte, 25 C, 1:1 model
Experimental: as §1, §2, §3

[4] = biological target: T1, human complement component C6; experiment: ELISA on biotinylated hC6 and Biacore 3000 off-rate screening of periplasmic extracts on immobilized hC6

- half-life of the 7E5-C6 complex [1]: > 40 h
- t1/2 (complex half life) [2]: 45 h and 45.1 h
- binding result (peptide 420): binds
- binding result (peptide 418): binds
- Kd [3]: 0.253 nM
- koff [3]: 4.27e-06 s⁻¹
- kon [3]: 16900 M⁻¹ s⁻¹
B1: rat anti-human C6 monoclonal antibody 7E5 (antibody, V domains shown)
VH: EVQLVESDGGLVQPGGSLKLSCVASGFSFSDYYMAWVRQGPTKGLEWVATINYDGSSTYYRESVKGRFTISRDNAKRTLYLQMDSLRSEDTATYYCSRPSTEALFAYWGHGTLVTVSS
VL: DVVLTQTPSTLSATIGQSVSISCRSSQSLLNDVGNTYLYWYLQRPGQSPQLLIYLVSDLGSGVPNRFSGSGSGTDFTLKISGVEAEDLGIYYCMQASHAPYTFGAGTNLELK
notes: Whole antibody (150 kDa analyte in SPR) from a rat hybridoma; also called 7E5 mAb; supernatant #11

- binding result [4]: binds
B2: humanized 7E5 Fab 7E11 (Fab, V domains shown)
VH: B1 VH with D8G, K19R, S28T, G40A, T42G, R77N, S88A, T93V, S97A, H110Q
VL: B1 VL with V2I, S9L, T10S, I15P, N65D, G82R, L88V, I90V, L111I

- binding result [4]: binds
B3: humanized 7E5 Fab 7F06 (Fab, V domains shown)
VH: B1 VH with D8G, V23A, S28T, S30R, T42G, R77N, T78S, S88A, T93V, S97A
VL: B1 VL with S9L, A13V, I15P, S18P, R44K, G82R, L88V, I90V, N108R
notes: also called 7F6

- binding result [4]: binds
B4: humanized 7E5 Fab 7E12 (Fab, V domains shown)
VH: B1 VH with V23A, S28T, T42G, R77N, D84N, S88A, S97A
VL: B1 VL with A13V, I15P, S18P, V19A, R44K, G82R, L88V, A105Q, L111I

- binding result [4]: binds
B5: humanized 7E5 Fab 7F02 (Fab, V domains shown)
VH: B1 VH with D8G, V23A, S28T, T42G, R77N, T78S, D84N, T93V, S97A
VL: B1 VL with L4M, I15P, V19A, R44K, G82R, L88V, N108R
notes: also called 7F2

- binding result [4]: binds
B6: humanized 7E5 Fab 8F07 (Fab, V domains shown)
VH: B1 VH with D8G, K19R, V23A, T42G, R77N, D84N, S97A
VL: B1 VL with S9L, A13V, I15P, R44K, N65D, L88V, I90V, N108K, L111I
notes: also called 8F7

- binding result [4]: binds
B7: humanized 7E5 Fab 8G09 (Fab, V domains shown)
VH: B1 VH with K19R, S28T, G40A, T42G, S88A, T93V, S97A, H110Q
VL: B1 VL with V2I, S9L, A13V, I15P, R44K, G82R, L88V, I90V, N108R, L111I

- binding result [4]: binds
B8: humanized 7E5 Fab 7F11 (Fab, V domains shown)
VH: B1 VH with V23A, S28T, R77N, D84N, S88A, T93V
VL: B1 VL with A13V, I15P, S18P, R44K, L88V, I90V, N108R, L111I
